In patent publication US11110182B2, “Multifunctional RNA nanoparticles and methods for treating cancer and therapeutic resistant cancer” (University of Cincinnati, priority 2016, dated 2021):

Experiments:
MCF-7/HER2 cells = assay: MTT assay, MCF-7/HER2 cells; type: cell-based, human; conditions: MCF-7/HER2, 10 μg/mL pRNA and 1 μM tamoxifen, 48 h
Protocol: FIGS. 10A-10D. Evidence that pRNA-HER2apt-siMED1 nanoparticles silenced MED1 expression and sensitized two other HER2+ breast cancer cells to tamoxifen treatment. FIG. 10A) Two HER2-overexpressing breast cancer cell lines MCF7/TAM and FIG. 10B) MCF7/HER2, were treated with 10 μg/mL pRNA-HER2apt-siMED1 nanoparticles or scramble control for 48 h, and then MED1 protein level was determined using western blots. FIG. 10C) MCF7/TAM and FIG. 10D) MCF7/HER2 cells were treated with 10 μg/mL pRNA nanoparticles and/or 1 μM tamoxifen (TAM) as indicated for 48 h, and then cell growth was determined using an MTT assay.
Since MED1 has recently been reported to play key roles in tamoxifen resistance of human breast cancer, the combinational effects of pRNA-HER2apt-siMED1 nanoparticles with tamoxifen on the growth and metastatic potential of BT474 cells was examined. […] The combinational effect of pRNA-HER2apt-siMED1 nanoparticles with tamoxifen treatment on two other HER2-overexpressing breast cancer cells MCF-7/HER2 and MCF-7/TAM were also confirmed (FIGS. 10C-D).

[1] = Tm value by temperature gradient gel electrophoresis (TGGE) assay; type: physicochemical
Protocol: Cell culture. Human breast cancer luciferase-overexpressing BT474 and MDA-MB-231 cells were maintained in DMEM medium (Hyclone, Thermo Scientific) supplemented with 10% fetal bovine serum (FBS, Sigma) and 1% penicillin/streptomycin (Corning) at 37° C. in a humidified atmosphere with 5% CO2.^53 • Generation of pRNA nanoparticles. The two strands of pRNA were synthesized with the DNA templates, which were amplified with overlapping primers (Sigma) by PCR methods, using a T7 promoter-controlled in vitro RNA transcription system as previously described^33 (Table 1). […] The hydrodynamic diameter and Tm value of pRNA nanoparticles were determined using dynamic light scattering and TGGE assay, respectively, as previously described.^54 The AFM imaging of the pRNA nanoparticles was performed at the University of Nebraska Medical Center imaging facility as previously reported.^55 Briefly, the pRNA nanoparticles (5 μL) were deposited on APS modified mica ^56 for a total of 2 min of incubation time. […] After washing three times with PBS, the cellular uptake of pRNAs was determined using a BD LSRFortessa™ flow cytometer. • Real-time PCR. […] The expression of MED 1, TFF1, c-Myc, cyclinD1 and MMP-9 was analyzed using GAPDH as the internal reference. • Western blot analyses. […]

B1: pRNA-HER2apt-siMED1: 3-WJ pRNA nanoparticle bearing a HER2-targeting RNA aptamer and two different MED1 siRNAs; strands p1 SEQ ID NO: 3, p2 SEQ ID NO: 4 (nucleic acid)
chain 1: GGACAGUGAAAGUGAGUCAAAGGAUCAAUCAUGGCCAAAGAUGUUACUUUGAGAGCCUU
chain 2: GGCUCUCAAAGUAACAUCUAAGGCCAUGUGUAUGUGGGGGGAGGACGAUGCGGUCUGCUGUGCUUGAUAUGCCCCAGACGACUCGCCCCCCACAUACUUUGUUGAUCCAAUGACUCACUUUCACUGUCCUU
modifications: 2'-F modification; third strand may lack entry; pRNA-HER2apt-siMED1, p1; pRNA-HER2apt-siMED1, p2
With B1 the “combinational effect with tamoxifen on cell growth” value (MCF-7/HER2 cells) was “confirmed” and the Tm value [1] was 78±2 °C.
